Experimental data taken from article PMC7556403.

Legend:
[1] = target: MBP-APO1 mXT (dimeric form) M46A;R48S;I80T;W121A;L173A;W199A;F205A;del1-14 (human) (UniProt P41238); assay: EMSA; settings: no A1CF; dimeric form; 50 nM nucleic acid, 20 mM HEPES, 50 mM NaCl, 5 mM DTT, 10% glycerol (0.4 U RNase inhibitor for RNA), pH not stated for EMSA (HEPES pH 7.5 in protein buffers) …
[2] = target: MBP-APO1 mXT (aggregated form) M46A;R48S;I80T;W121A;L173A;W199A;F205A;del1-14 (human) (UniProt P41238); assay: EMSA; settings: no A1CF; aggregated form; weaker than WT; 50 nM nucleic acid, 20 mM HEPES, 50 mM NaCl, 5 mM DTT, 10% glycerol (0.4 U RNase inhibitor for RNA), pH not stated for EMSA (HEPES pH 7.5 in protein buffers) …

## GGAUAUAUGAUACAAUUUGAUCAGUAUAUUAAAGAUAGUUAUGAUUUACAUGAUU [APOB RNA 55 nt]
[1]
  Kd: 140 nM
[2]
  Kd: 460 nM
